# Measured values reported in paper PMC9040800.
# Tested on: DctD2 D57Q (d-DctD2 mimic) (Vibrio vulnificus)
# Experiment: EMSA
# Conditions: EMSA: 50 mM Tris-HCl pH 8.0, 20 mM KCl, 50 mM MgCl2 (so in the source), 100 mM NaCl; approx. 50 nM 32P-labeled probe; 6% native PAGE; temperature not stated
substance,measurement,value
EPS-II cluster regulatory region probe (480 bp),binding,> 700 nM
